Data published in patent US20250115667A1.

Key:
[1] = biological target: Programmed cell death protein 1 (PD1), human (human) (UniProt Q15116); test: cell-based or functional assay
[2] = biological target: Cytotoxic T-lymphocyte-associated protein 4 (CTLA4), human (human) (UniProt P16410); test: cell-based or functional assay

In the case of XmAb20717 (bispecific antibody), the IL-2 secretion from SEB-stimulated human PBMC (ELISA), fold increase versus a mixture of XENP20111 and XENP20059 [1] is reported as 1.6 fold and the IL-2 secretion from SEB-stimulated human PBMC (ELISA), fold increase versus a mixture of XENP20111 and XENP20059 [2] is reported as 1.6 fold.
